Assay results reported in PMC7461809.

Molecular target: EcoWI endonuclease
Assay: SEC; analytical Superdex 200 10/300 GL, 4°C, 0.38 ml/min, 100 mM NaCl, 20 mM Tris-HCl pH 8, 1 mM DTT, 0.1 mM EDTA, 5% glycerol; purified EcoWI at 2.7 mg/ml; relative molecular weight from Kav against standard proteins

## EcoWI endonuclease (enzyme)
  stoichiometry N: 2
